Assays:
[1] = molecular target: T1, FAP from human plasma (Homo sapiens, UniProt Q12884); assay: Immunoprecipitation of FAP from human plasma, α2AP-AMC cleavage in supernatant; assay type: biochemical; details: compared to plasma before immunoprecipitation
T1 construct: from tissue; host or cells: human blood plasma
T1 sequence (Q12884 24-760 limits assumed): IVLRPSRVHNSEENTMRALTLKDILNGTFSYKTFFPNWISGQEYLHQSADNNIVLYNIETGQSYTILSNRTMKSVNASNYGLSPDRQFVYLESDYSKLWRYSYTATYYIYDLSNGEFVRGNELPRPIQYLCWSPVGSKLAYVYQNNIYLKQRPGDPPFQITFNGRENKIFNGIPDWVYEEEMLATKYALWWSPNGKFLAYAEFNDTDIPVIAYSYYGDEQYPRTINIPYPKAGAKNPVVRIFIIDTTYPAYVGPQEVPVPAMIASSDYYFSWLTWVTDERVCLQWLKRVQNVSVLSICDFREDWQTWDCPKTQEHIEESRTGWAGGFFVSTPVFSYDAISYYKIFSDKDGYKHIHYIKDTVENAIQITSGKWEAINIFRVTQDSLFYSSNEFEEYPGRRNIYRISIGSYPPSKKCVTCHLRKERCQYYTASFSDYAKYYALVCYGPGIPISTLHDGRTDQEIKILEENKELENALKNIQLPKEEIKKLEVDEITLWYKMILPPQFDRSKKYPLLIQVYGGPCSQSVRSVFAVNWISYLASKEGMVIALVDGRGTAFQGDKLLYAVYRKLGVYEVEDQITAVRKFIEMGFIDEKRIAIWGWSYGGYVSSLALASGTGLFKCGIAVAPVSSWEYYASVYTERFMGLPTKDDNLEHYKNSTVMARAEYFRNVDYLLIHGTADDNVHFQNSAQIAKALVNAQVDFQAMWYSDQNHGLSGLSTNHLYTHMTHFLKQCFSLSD
Description: 100 μL of PureProteome G Magnetic Beads (Millipore LSKMAGG02) were suspended in 500 μL of 25 mM TRIS, 0.15M NaCl, and 0.1% Tween 20. Human plasma was diluted 1:5 in PBS to an end volume of 125 μL, separated into four tubes, and incubated for 30 min at RT with rotation. Beads were then collected with a magnetic stand, and the pre-cleared supernatant was transferred to a new tube containing magnetic beads coated with 82C2, 43A11, or 3A1. Antibody-conjugated beads were incubated with the plasma dilution overnight at 4° C. while rotating. Beads were then collected with a magnetic stand and the supernatant was removed of analysis of α2AP-AMC cleavage activity. To determine α2AP-AMC activity in the supernatants, a half area black 96 well plate was blocked with sterile filtered 5% BSA at 37° C. for 1h. Then 40 μL of PBS was added to all the wells, 5 μL of the supernatant solutions to the appropriate wells, and 5 μL of α2AP-AMC solution in methanol was added for a final assay concentration of 10 μM. The fluorescence intensity (cleaved AMC) was measured at 360 nm excitation and 460 nm emission every 3 min over a total time of 30 min and the reaction velocity was calculated using Graphpad Prism 6 software.

[2] = molecular target: T2, transmembrane human FAP (Homo sapiens, UniProt Q12884); assay: Flow cytometry on FAP-HEK293 cells at pH 7.4, 6.8, 6.4; assay type: cell-based; details: pH 6.4 and 6.8 vs pH 7.4, FAP-HEK293 cells, Cy5 labelled
T2 construct: retrovirus encoding full length human FAP cDNA; host or cells: HEK293 (FAP-HEK293, G418 selected)
T2 sequence (Q12884 1-760): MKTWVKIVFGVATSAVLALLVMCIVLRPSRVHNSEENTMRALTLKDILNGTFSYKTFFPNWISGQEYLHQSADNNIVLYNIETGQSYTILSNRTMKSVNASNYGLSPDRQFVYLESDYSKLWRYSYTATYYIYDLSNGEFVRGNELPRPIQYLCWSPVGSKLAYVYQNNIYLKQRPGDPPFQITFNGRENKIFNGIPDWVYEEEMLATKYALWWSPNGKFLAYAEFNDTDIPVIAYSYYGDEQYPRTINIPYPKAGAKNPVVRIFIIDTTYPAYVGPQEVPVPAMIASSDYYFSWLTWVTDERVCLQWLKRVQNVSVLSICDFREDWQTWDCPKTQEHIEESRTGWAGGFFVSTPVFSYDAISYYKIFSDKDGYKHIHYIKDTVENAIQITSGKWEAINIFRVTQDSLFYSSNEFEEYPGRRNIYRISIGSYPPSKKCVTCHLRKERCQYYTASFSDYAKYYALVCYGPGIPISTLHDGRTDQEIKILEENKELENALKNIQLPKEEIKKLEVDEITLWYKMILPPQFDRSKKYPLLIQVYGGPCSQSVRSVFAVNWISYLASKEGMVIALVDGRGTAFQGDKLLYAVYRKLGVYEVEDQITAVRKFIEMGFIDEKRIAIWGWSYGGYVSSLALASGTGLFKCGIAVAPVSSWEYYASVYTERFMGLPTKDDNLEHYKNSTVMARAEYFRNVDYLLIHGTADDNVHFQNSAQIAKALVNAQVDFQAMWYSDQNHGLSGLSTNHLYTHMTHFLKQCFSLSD
Description: To evaluate the binding of NI-206.82C2 to transmembrane human FAP, an FAP expressing HEK293 cell line was received from the National Institutes of Health, Bethesda, Md. The generation of this FAP expressing HEK293 cells is described in: J. Exp. Med. 2013 Vol. 210 No. 6 1125-1135.
HEK293 cells were transduced with retrovirus encoding full length human FAP cDNA. Cloning was performed using Fast Cloning Pack and FastDigest restriction enzymes (both from Fermentas). Transient retroviral supernatants were generated by transfecting 293GP cells with the FAP plasmid using Lipofectamine 2000 (Invitrogen). Retroviral supernatants were collected at 48 h after transfection and centrifuged onto Retronectin-coated (10 μg/ml; Takara), non-tissue culture-treated 6-well plates at 2,000 G for 2 h at 32° C. These retroviral supernatants where then used to transduce HEK293 cells overnight. Transduced FAP-HEK293 cells were selected with 1 mg/ml G418 (CellGro). […]
To analyze antibody binding, fluorescent activated flow cytometry was performed using a BD Fortesa device for forward scatter, side scatter, and the mean fluorescent intensity (MFI) of the Cy5 channel was recorded using a […] laser excitation and 600/20 filter. Viable cells were gated by forward and side scatter, and singlets/doublet exclusion, and the MFI for Cy5 was quantified using FlowJo software Version 10.1.

B1: NI-206.82C2: recombinant human memory B cell-derived monoclonal anti-FAP IgG1 antibody, variable regions in FIG. 1A, FAP inhibitory (antibody, V domains shown)
VH: QVQLQQSGPGLVKPSQTLSLTCAISGDSVSSNSVTWNWIRQSPSRGLEWLGRTYYRSKWYNDYAVSVKGRITINPDTSKNQFYLQLKSVTPEDAAVYYCARDSSILYGDYWGQGTLVTVSS
VL: QAVLTQPSSLSASPGASASLTCTLPSGINVGTYRIFWFQQKPGSPPQYLLSYKSDSDNHQGSGVPSRFSGSKDASANAGILLISGLQSEDEADYYCMIWHSSAWVFGGGTKLTVL
[1]
  rate of FAP substrate alpha 2 anti-plasmin (α2AP-AMC) cleavage in plasma after immunoprecipitation: significantly reduces
[2]
  binding to transmembrane FAP, pH dependence (Δ MFI): higher affinity at lower pHs

Source: patent US20170369592A1, “NOVEL ANTI-FIBROBLAST ACTIVATION PROTEIN (FAP) ANTIBODIES AND USES DERIVED THEREOF” (Mabimmune Diagnostics AG, priority 2015, published 2017)
